# Test: soluble fraction after stress (log2 fold change); higher = more stays soluble; pooled small domains, quantitative proteomics
# Settings: stress: 75 degC
# 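Further: 20 min heating vs room temperature control held 20 min.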
sequence,measurement,value
HMRTGSSVLVGLVAPVRLGATGAPKVFADGALWEARSAVPLNDGQLVEITGTDGLTVLVKPSA,soluble fraction (log2),-0.122
HMRTIVSELNDIKGISDASAKKLLIRYGSFEAVREAVMKHEEEFELDMGKRITGALTRYFYEE,soluble fraction (log2),-1.78
HMRTKLEEAVEWLQEQLNDGPVLSKELESEAKAADILPGTLRRAGEALGVVKQKQGGRGGWTWSLPR,soluble fraction (log2),-0.017
HMRTLGADLRALRKARGLTLAGMADNMGKSVGWMSQIERDISEPSISDLRALAKLLDVSVSSLFR,soluble fraction (log2),-2.54
HMRTQEELVAEVREQMEAMGTIATLYVELYESSEERLVGGVIFEDERHYRFVYEDGLLHYEEEK,soluble fraction (log2),-0.527
HMRTRSDVKRAAIIQAAKDAFQEYGVNATSMDKLAEMASVSKRTVYNHFSAKEELVMHIVKE,soluble fraction (log2),0.538
HMRTVPEALLGRAYETAETAIVLEGLEAKRTDVFHPTIGNGTVIRLEPASGSQVSAGGVIEIFVSKGTETI,soluble fraction (log2),-0.346
HMRVDYKTQLQELLQRQGAAAPQYRLLVEEGPAHLRRFQVGVYFQGRLLGTGWGRNKKEAEQEAARQALMP,soluble fraction (log2),-1.9
HMRVEEVGYGEFLQMAEERDLAEVQVTDTEIIFSDKDTPPNYYKTGRMDDPFLVDRLYSAGIRDFGE,soluble fraction (log2),-0.136
HMRVESVGDRIRRLRKSLGLTQVKLAQMLGIKAPSVVQWESDKTNLSGENLLNAAKLFGVTPDYILYGG,soluble fraction (log2),-0.197
HMRVLEYTADGSRLDVLLSQDGVLSRSRAAELIKGGAVTVDGRAEGKPSAKPAPGALVRVEVPE,soluble fraction (log2),0.0615
HMRVVGRNHYDDADLAHIRSVIQLEARPLNVSRIARTLANEYPKHTYWSYLSFLQKNLRDRPDLF,soluble fraction (log2),-1.96
HMRVVPEILERAVAVFEALGVDRLPSSTLADRLGYDSPEALADVLRPLGVRPKKYRDGKSTARGYLAADLG,soluble fraction (log2),-0.526
HMRYEESVTLGERLLNQSLVALKADNIDDALWERFLREEAGEKSRQEILSDIGLGKRLPVVVAKRLLAPS,soluble fraction (log2),-0.115
HMRYPLPYAFARSQQLLLEETDDGRYTLWMSSHPARSAVGEVSRKYGVQTFEVLADGPLAQRISAAYAQ,soluble fraction (log2),-0.983
HMRYTAAEMAKKLDISRSYLYYLKEAGVVEIEKNENGKPIWTESVYNQLFEYIKKNHRTEEADNTQ,soluble fraction (log2),-0.805
HMSAAIGEAVIATDEINVRSGPGLSHEIVSVVSRNESYPILEERGDWVQIQLNGGQKGWVVSWLIKKKS,soluble fraction (log2),-0.665
HMSAAMTESVLDGIPGLGATRKAALLAHFGSVRKLRAATSEQVREVPGIGPRLAETILATLHEP,soluble fraction (log2),-0.52
HMSAATGIINTDNVNIRSGPATTYDAVGRLNQGSSVEILSSRNDWYQIQANSLKGWVRNDLLNVQK,soluble fraction (log2),-0.00758
HMSADDLVSRTQAIVAELKDLEGPLLPILHSVQEAFGHVPDEVKPVIAEALNLSRAEVHGVVSFYHDFRAH,soluble fraction (log2),-0.126
HMSADIGAEKAKTIALNHAGVSASNAVFLHAKLDYDDGRRTYEVEFYSGSKEYDYEIDAATGEILSYDFD,soluble fraction (log2),-0.929
HMSAEAYLSFVKKENLRAAVVNYENNKEWLKDVPHERLLDLAVFAKVDMGEPGMSMKFNNWLLSR,soluble fraction (log2),-0.934
HMSAEKDGEWLTLTEAAKHLQVSPHVIRRLIQTGALPAEQVMRGAPHQIRAADLDTDRVKTMIAR,soluble fraction (log2),0.133
HMSAEKPVKSELFYKSMLNSFEQAVRFMIANGILEDFKSRIVAINNETNHQNWFNKQEFNAIIERF,soluble fraction (log2),-1.49
HMSAERFDFRIGPELAGKRFDQALAEALPQFSRSRLSTWIKDGRATLNGATMRPKDSVHAGDTVVVNAE,soluble fraction (log2),-0.186
HMSAEVEVPDVVGRQVALAVQLIETKKLRVNVAETYDAKVPPGQVISQSPEAGMKVKEERVITIYVSR,soluble fraction (log2),-1.36
HMSAGISVADVTNRTYDEGYNTLTAQHLLVNKVYEANETIPLDTIIRTDPVAGTKVPDNTSITVYVSSGK,soluble fraction (log2),0.382
HMSAGPQGRTPREDELTVGTKVYVSRVGASGVVSSDVSRGKVVVQVGALRLTAAVSELLLLDG,soluble fraction (log2),-1.21
HMSAGYTYQNYQQDLKSGNVQNIHIYLSEEMYSGNVKVIYKNNKSVTFTVTDVTIAEAEARQVGISPIIYE,soluble fraction (log2),-2.38
HMSAHDLQVVLRWIGTDEPMTDQRYRITTEDGRTFEGRTDDAGLTERVASTIPFGRYSIEALD,soluble fraction (log2),-0.278
HMSAIEIDAEKILNYLTDRGGKMPYGDTTAPEVIKDKFNISKAAFKRALGFLLRSNKIEQIDGWTYI,soluble fraction (log2),-0.433
HMSAIKSVTTQLDNTKLRTGPDVSYQYTQSYPANTKLTYINKSGTWYQVKDADGNTGYVASWVVTPSE,soluble fraction (log2),0.586
HMSALIGAHTLERIDSRDFEGVVMAWLPKRDGYDSLYKIYHIEDGDFEELDDREVQAAISLFIEGT,soluble fraction (log2),-0.381
HMSAPAMTLDSIRSLLNDRDPWVVTQTVEWLVGLGPQVKTILETLTLESSDAARQAQNALDRINVRNYP,soluble fraction (log2),-0.796
HMSAPNPGQMHSWTDTQGRTLQATFIKADATTVTLNWNGRIVPIPLANLNAASQKLARELASAS,soluble fraction (log2),-0.443
HMSAPRRGETTAASLNLRAGPATDADILAQLPERTPLRVLQEDGEWLRVETHGNEGFVHRQFVAIPGDEP,soluble fraction (log2),0.0338
HMSARRHAVKHLDANQLQTRVARMLSEFGLTAKVSKDPNSNALIIDGAPEAQRIAAQLITTIDKE,soluble fraction (log2),0.0709
HMSASSDATRQRVLRAAEQLFGAKGVENVSLREMTTLAGVNLAAVNYHFGSKDALAEAVFEALSER,soluble fraction (log2),0.253
HMSASSEALKTAVRKVLLNNRMTQDRMARDAGLSGSALSQWLHGKYQGDVPALEGRLAAWLADTQAS,soluble fraction (log2),0.0606
HMSASSTAPGSVTLRGAILTAWTAAGGERSKMGLPVGYEVRQADGTVTQTFEKGRISVSPTGTATI,soluble fraction (log2),0.0449
HMSAVNLNDDEKAVYKSIKSGIRSLDELSLRTGMKIYELMAITVSLEMKGLVTKSPDGTLDAT,soluble fraction (log2),-0.743
HMSDAKKRAFSKDEILYSLKNRPFTSFDIESLFDDESKKTFIGLLDKGEISEKKVAGTIFYYLR,soluble fraction (log2),-0.817
HMSDEEAISKLPGVGPAILEKLKEAGYNDIMTIAVDSPKNLAELAEIGEPTAAKIIAAAKKAAD,soluble fraction (log2),0.113
HMSDIDIDVENDRAALAIAGGKLNHLVGARGEVLDALQELTRLAVQTSLGERSRLMLDIDNFRSD,soluble fraction (log2),0.185
HMSDIHARIAAALAALTSPEKIHDLVVDDDGKVSFTFHLTREDPATLVRDARKAVQAVDGVRDVKVNVVDP,soluble fraction (log2),0.134
HMSDKEDIDKYLLTYGDLLFNRTNSSEWVGKTAIYRGEVSAIYAGYLIRIRSFLDAEYLNSVMNSKYA,soluble fraction (log2),0.1
HMSDKTSLTDDDKALINSMLPDYDKYPSVAKLQAVEIAKSSSKMATLLMLDERYNETVSEALE,soluble fraction (log2),0.152
HMSDLGEIEKIVDEVLAENITKVQEYKDGKKGLMGMFMGQIMKKSGGKADPKIANQLLTEKL,soluble fraction (log2),0.11
HMSDNHYLLEIFLADLKSDEKFIRELAIFQLHHHIESDKVRAELKAAAETESDPYLKGMIESLLSSTS,soluble fraction (log2),-1.53
HMSDNYYSILGIETDATTDMIKRAYRRLSLELHPDRTKDNPILTEKYKKVNEAYGVLNDNDRKHIYDLQNI,soluble fraction (log2),-0.109
HMSDPELAIPRVVGLSGNDAQAALVKAGFSAVTVVTVKNSEVTSEQVTHVVPAEGAKAKASTPVTVVVSSS,soluble fraction (log2),-0.205
HMSDRQLKRQANILYTTRKLASKVGYDGLTMRGLAEASEVSPKTLYNLFSSKDELLAAALEDLVGIV,soluble fraction (log2),0.0601
HMSDTFTITTESGRIDKIITAHETTHTRSQVQKWLQDGLVTVNGNPVKANFKVTAGDVVTVTIPEVK,soluble fraction (log2),0.0601
HMSDTMTVTNVKYAIYLRSTPSEASDANIIMEIPVGSKVTYLDTPNNTFYKISYGGTVGYSKQIYLTF,soluble fraction (log2),-3.69
HMSDVLPEAILERRLVKKGNRAVPQVLIKWTKLPATSATWEDFYVLQQRFPTALAWGQAPSPGGQM,soluble fraction (log2),-0.462
HMSDVTPDVVRALRKRLKLTQVQFGEIFGMTSKKVSAWEHGKAEPTEEQKQKIQSLLKENNEQ,soluble fraction (log2),-0.146
HMSEATTVNYKYAVTISDLRIRKGPGTNYGSVGYTGKGVFTIVAEKGGWGKLKSGAGWISLNSKYGHKVS,soluble fraction (log2),-2.03
HMSEEAMVSNFRQQEILELARKDGKVTVDGLAELYDVTVQTIRRDLSDLADSGRLKRVHGGAVVPS,soluble fraction (log2),0.162
HMSEFGENLKKLRTARDLTQQELGAKVGLSKAVVSKYENGLGYPTFDVLIRIAAYFGVTTDYLLGV,soluble fraction (log2),-2.81
HMSEFSDRFRLLKDESGATLKELSEQLDITVPNLSYYMKGREPSYDILIKIADYFGVTTDWLIGRTDER,soluble fraction (log2),-1.18
HMSEILQLINKIDKKLEKGYTFANISRNHYEKIYKEEILNLYKTSKLKGEAEDSIKEVLESLLGDLRKP,soluble fraction (log2),-0.833
HMSEISAEAGKRIRYFRKSRSMTLEELAAVIHKSKATLSKYETGEISIDLDTLYDLAVALQVRAEQLLPAS,soluble fraction (log2),-4.35
HMSEITMMQMEIPEGHNWENRLVKDVSMPTGSLAVMIKRHGETLIPGGDTRILAGDTIVLSVPAYESG,soluble fraction (log2),-0.112
HMSEIYVDDINRKILYLLSQGIKTKSLLEHIPLSMSGIEKRKKQLKMLFSVEDGKDETLLEMAKEKGF,soluble fraction (log2),-2
HMSEKAQSENEDLIKILALLIHAAKIDENYSEKEKKLIISFAEMSSNKKLDREQINSLVDKAEQYEK,soluble fraction (log2),-0.532
HMSEKLLTLNEISEKLRVSRHTVQAWVSPSSPNHRPEFSSLARHAGRKTVFLESDVDAWLAQRR,soluble fraction (log2),-1.07
HMSEKYPPIDWNNIKTGQSVLIKDINQVVSLTKLPDSKGFAEVQMGLIKTKIKAEKLAATDKKPNK,soluble fraction (log2),-0.326
HMSELDSYIGARLRMRRLMLGMSQEALGEKLSLTFQQIQKYEKGTNRVSASRLYELAQVLDVPVQFFFDGA,soluble fraction (log2),-2.98
HMSENDTILAKFASIINNKSLELVIFPDTAYLKGQVSTPEDKARAETVAQSLLGSKPLISLIEFE,soluble fraction (log2),-0.386
HMSENPLTSREIEIVQLLANGKTTKSIAEELHLSNGTIRNYVSIVLDKLNVSNRIEAIRKALDKGWL,soluble fraction (log2),-1.81

# From the domain aggregation screens of Martell et al. (2025)
